# Molecular target: FGFR4 (human) (UniProt P22455)
# Test: ELISA; also printed 0.001 ug/mL
# FGFR4 (human), sequence (P22455 22-369): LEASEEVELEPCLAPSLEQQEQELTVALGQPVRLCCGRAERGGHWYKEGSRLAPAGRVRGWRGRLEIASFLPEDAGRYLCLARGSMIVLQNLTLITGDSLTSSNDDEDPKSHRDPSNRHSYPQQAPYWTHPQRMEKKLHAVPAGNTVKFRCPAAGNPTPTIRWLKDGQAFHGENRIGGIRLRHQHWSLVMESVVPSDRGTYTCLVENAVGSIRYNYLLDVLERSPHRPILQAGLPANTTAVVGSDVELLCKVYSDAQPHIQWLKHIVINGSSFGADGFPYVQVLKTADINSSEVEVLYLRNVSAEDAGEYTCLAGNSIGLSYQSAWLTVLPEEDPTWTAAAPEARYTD
substance,measurement,value
ab41948,Kd,0.07 nM
